Assay results as given in patent publication US20210032343A1 (published 2021).

How the values were obtained:
[1] = target: recombinant human PD-1 (product No. 10377-H08H, Beijing Yiqiao Shenzhou) (human, UniProt Q15116 25-167); experiment: ELISA
[2] = target: T1, recombinant human PD-1-Fc (human, UniProt Q15116 25-167); experiment: competition ELISA; blocking PD-1/PD-L1
[3] = target: T1, recombinant human PD-1-Fc; experiment: competition ELISA; blocking PD-1/PD-L2

T1 sequence (Q15116 25-167): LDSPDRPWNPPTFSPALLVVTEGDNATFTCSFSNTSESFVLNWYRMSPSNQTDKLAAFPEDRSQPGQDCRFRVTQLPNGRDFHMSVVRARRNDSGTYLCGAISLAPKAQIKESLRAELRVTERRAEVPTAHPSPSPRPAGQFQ
Chain of recombinant human PD-1 (product No. 10377-H08H, Beijing Yiqiao Shenzhou) (Q15116 25-167): as above

EC50 [1]: 0.18 nM
IC50 [2]: 2.71 nM
IC50 [3]: 2.89 nM
B1: PD-1 monoclonal antibody (antibody, V domains shown)
VH: QVQLVQSGAEVKKPGSSVKVSCKASGGTFSSTAISWVRQAPGQGLEWMGGIWPSFGTASYAQKFQGRVTITADESTSTAYMELSSLRSEDTAVYYCARAEYSSTGIFDYWGQGTLVTVSS
VL: DIQMTQSPSSVSASVGDRVTITCRASQGISSWLAWYQQKPGKAPKLLISAASSLQSGVPSRFSGSGSGTDFTLTISSLQPEDFATYYCQQANHLPFTFGGGTKVEIK
